Reference: publication PMC8826056, “Different Functions of IbRAP2.4, a Drought-Responsive AP2/ERF Transcription Factor, in Regulating Root Development Between Arabidopsis and Sweetpotato”

Biological target: GST-IbRAP2.4 (Ipomoea batatas (Sushu 16), UniProt A0A3S6I5T9 1-294)
Assay: EMSA; dose-dependent, 0.5-4 ug protein; unlabeled probe competes; 200 mM HEPES, 50 mM KCl, 5 mM DTT, 1 mM EDTA, 20 pmol poly dI-dC, 30 uL (so in the source), pH not stated; room temperature 30 min; 8% native PAGE
Settings: protein: recombinant; tags: GST; label: 32P (T4 PNK, gamma-ATP); blunt (annealed oligonucleotide set)

GST-IbRAP2.4, sequence (A0A3S6I5T9 entry or part of it): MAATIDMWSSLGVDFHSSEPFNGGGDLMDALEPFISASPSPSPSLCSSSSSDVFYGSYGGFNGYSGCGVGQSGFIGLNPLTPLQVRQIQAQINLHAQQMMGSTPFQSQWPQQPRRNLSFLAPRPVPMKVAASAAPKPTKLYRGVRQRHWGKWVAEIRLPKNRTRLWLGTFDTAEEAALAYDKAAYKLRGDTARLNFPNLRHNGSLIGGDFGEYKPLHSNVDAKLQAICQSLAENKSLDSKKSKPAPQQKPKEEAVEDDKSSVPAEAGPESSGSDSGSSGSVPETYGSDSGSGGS

Binder | binding result
GCC-box probe (dsDNA) DNA 1: TTCATAAGAGCCGCCACTCATAAGAGCCGCCACT DNA 2: AGTGGCGGCTCTTATGAGTGGCGGCTCTTATGAA | binds
DRE probe (dsDNA) DNA 1: TTGATACTACCGACATGAGTTGATACTACCGACATGAGTT DNA 2: AACTCATGTCGGTAGTATCAACTCATGTCGGTAGTATCAA | binds
